Test results: paper doi:10.1101/2021.10.01.462756 (bioRxiv, 2021)

Legend:
Experiment in all cases: cryo-EM structure
[1] = biological target: Rad24-RFC clamp loader (Rad24, Rfc2, Rfc3, Rfc4, Rfc5) (S. cerevisiae, UniProt P32641;P40348;P38629;P40339;P38251)
[2] = biological target: T1, Ddc1 (S. cerevisiae, UniProt Q08949 1-612)
T1 sequence: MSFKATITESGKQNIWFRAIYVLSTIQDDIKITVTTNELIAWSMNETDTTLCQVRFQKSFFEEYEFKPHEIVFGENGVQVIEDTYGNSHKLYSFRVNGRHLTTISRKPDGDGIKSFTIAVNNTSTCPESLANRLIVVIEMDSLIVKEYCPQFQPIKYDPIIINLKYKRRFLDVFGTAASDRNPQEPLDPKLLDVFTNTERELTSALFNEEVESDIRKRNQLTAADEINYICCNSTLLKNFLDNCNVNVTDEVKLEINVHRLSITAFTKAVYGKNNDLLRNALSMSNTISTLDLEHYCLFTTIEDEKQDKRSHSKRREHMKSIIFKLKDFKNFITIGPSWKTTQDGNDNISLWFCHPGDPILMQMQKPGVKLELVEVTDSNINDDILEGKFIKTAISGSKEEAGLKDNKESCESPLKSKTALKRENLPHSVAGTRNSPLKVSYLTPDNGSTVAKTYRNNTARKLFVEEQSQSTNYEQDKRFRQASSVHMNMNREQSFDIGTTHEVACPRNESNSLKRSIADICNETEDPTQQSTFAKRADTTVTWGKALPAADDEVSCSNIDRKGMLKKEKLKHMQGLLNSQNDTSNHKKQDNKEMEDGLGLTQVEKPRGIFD

[3] = biological target: T2, His-PK-Mec3 (S. cerevisiae, UniProt Q02574 1-474)
T2 sequence: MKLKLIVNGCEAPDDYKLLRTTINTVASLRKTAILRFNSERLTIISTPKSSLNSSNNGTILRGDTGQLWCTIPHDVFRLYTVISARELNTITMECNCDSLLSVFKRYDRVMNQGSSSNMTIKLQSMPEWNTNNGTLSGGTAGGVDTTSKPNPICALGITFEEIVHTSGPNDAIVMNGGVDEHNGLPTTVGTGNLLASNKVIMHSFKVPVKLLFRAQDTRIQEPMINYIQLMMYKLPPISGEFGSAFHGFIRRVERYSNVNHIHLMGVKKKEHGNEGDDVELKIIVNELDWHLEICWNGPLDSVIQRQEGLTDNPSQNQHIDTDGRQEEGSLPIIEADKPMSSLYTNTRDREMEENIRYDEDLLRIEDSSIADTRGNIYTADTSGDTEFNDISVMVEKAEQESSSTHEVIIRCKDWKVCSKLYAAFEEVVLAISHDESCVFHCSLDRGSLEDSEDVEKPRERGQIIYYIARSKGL

B1: 9-1-1 clamp (Ddc1–Mec3–Rad17) (complex)
chain 1: MSFKATITESGKQNIWFRAIYVLSTIQDDIKITVTTNELIAWSMNETDTTLCQVRFQKSFFEEYEFKPHEIVFGENGVQVIEDTYGNSHKLYSFRVNGRHLTTISRKPDGDGIKSFTIAVNNTSTCPESLANRLIVVIEMDSLIVKEYCPQFQPIKYDPIIINLKYKRRFLDVFGTAASDRNPQEPLDPKLLDVFTNTERELTSALFNEEVESDIRKRNQLTAADEINYICCNSTLLKNFLDNCNVNVTDEVKLEINVHRLSITAFTKAVYGKNNDLLRNALSMSNTISTLDLEHYCLFTTIEDEKQDKRSHSKRREHMKSIIFKLKDFKNFITIGPSWKTTQDGNDNISLWFCHPGDPILMQMQKPGVKLELVEVTDSNINDDILEGKFIKTAISGSKEEAGLKDNKESCESPLKSKTALKRENLPHSVAGTRNSPLKVSYLTPDNGSTVAKTYRNNTARKLFVEEQSQSTNYEQDKRFRQASSVHMNMNREQSFDIGTTHEVACPRNESNSLKRSIADICNETEDPTQQSTFAKRADTTVTWGKALPAADDEVSCSNIDRKGMLKKEKLKHMQGLLNSQNDTSNHKKQDNKEMEDGLGLTQVEKPRGIFD
chain 2: MKLKLIVNGCEAPDDYKLLRTTINTVASLRKTAILRFNSERLTIISTPKSSLNSSNNGTILRGDTGQLWCTIPHDVFRLYTVISARELNTITMECNCDSLLSVFKRYDRVMNQGSSSNMTIKLQSMPEWNTNNGTLSGGTAGGVDTTSKPNPICALGITFEEIVHTSGPNDAIVMNGGVDEHNGLPTTVGTGNLLASNKVIMHSFKVPVKLLFRAQDTRIQEPMINYIQLMMYKLPPISGEFGSAFHGFIRRVERYSNVNHIHLMGVKKKEHGNEGDDVELKIIVNELDWHLEICWNGPLDSVIQRQEGLTDNPSQNQHIDTDGRQEEGSLPIIEADKPMSSLYTNTRDREMEENIRYDEDLLRIEDSSIADTRGNIYTADTSGDTEFNDISVMVEKAEQESSSTHEVIIRCKDWKVCSKLYAAFEEVVLAISHDESCVFHCSLDRGSLEDSEDVEKPRERGQIIYYIARSKGL
chain 3: MRINSELANKFSASTVHLEHITTALSCLTPFGSKDDVLIFIDADGLSFVRENNHVIKIQLLLSRELFMSYSYRNETEDHMKLCVKINHILDSVSVMNRNSDDIVECTLSYDGHGSPFVLIFEDSFISERVEYSTYLIKDFDTNGLELDRERISFEAIIKGEALHSALKDLKEIGCKECYVYAKTEANDENVFALISKSQLGFSKIKLPSNRSILEKLQVFDGDSTTVIDGFAVIGFFDFTSFDKIRKSTKIASKVLFRMDVHGVLSVNILSQTDDVIITDTTRPSNNRPGSIRQLQLPKDYPGIVIEVCMLEKESIDEAAQTEIELLMETNELGNRNSFKKSTIRKRYGTDKGNETSNDNLLQLNGKKIKLPSEEENNKNRESEDEENHCKYPTKDIPIFF
B1: binds [1].

B2: Rad17 (natural protein)
chain: MRINSELANKFSASTVHLEHITTALSCLTPFGSKDDVLIFIDADGLSFVRENNHVIKIQLLLSRELFMSYSYRNETEDHMKLCVKINHILDSVSVMNRNSDDIVECTLSYDGHGSPFVLIFEDSFISERVEYSTYLIKDFDTNGLELDRERISFEAIIKGEALHSALKDLKEIGCKECYVYAKTEANDENVFALISKSQLGFSKIKLPSNRSILEKLQVFDGDSTTVIDGFAVIGFFDFTSFDKIRKSTKIASKVLFRMDVHGVLSVNILSQTDDVIITDTTRPSNNRPGSIRQLQLPKDYPGIVIEVCMLEKESIDEAAQTEIELLMETNELGNRNSFKKSTIRKRYGTDKGNETSNDNLLQLNGKKIKLPSEEENNKNRESEDEENHCKYPTKDIPIFF
B2: binds [2]; binds [3].
